{
  "source": "patent US11549123B2",
  "about": "“Plant EPSP synthases and methods of use” (PIONEER HI-BRED INTERNATIONAL, INC., priority 2015, dated 2023)",
  "key": {"[1]": {"test_system": "sorghum EPSPS", "experiment": "EPSPS reaction rates at 200 uM PEP and S3P, and at 30 uM substrates with 1 mM glyphosate", "type": "biochemical, Sorghum halepense", "settings": "Sor ha; for Reaction rate, 200 uM, no glyph: PEP and S3P both at 200 uM, no glyphosate; for Reaction rate, 30 uM, 1 mM glyph: substrates at 30 uM, glyphosate at 1 mM", "experimental": "(§1) EPSPS activity was determined by quantifying the phosphate generated from the EPSPS reaction. Release of inorganic phosphate was coupled to reaction with 2-amino-6-mercapto-7-methylpurine ribonucleoside, catalyzed by purine-nucleoside phosphorylase (M R Webb, Proc. Natl. Acad. Sci. 89:4884-4887, 1992). The absorbance change that occurs was monitored at 360 nm, where the extinction is 11,200 M^−1 cm^−1, with a Spectramax plate reader (Molecular Devices). To determine kinetic parameters, the varied substrate was present at seven concentrations (the eighth being the blank, containing no substrate) ranging from 4 to 400 uM and the unvaried substrate present at saturation. Six microliters of 50-fold concentrated stock solutions of the varied substrate were placed in the wells of the 96-well assay plate and reactions were started with the addition of a mixture containing 25 mM Hepes, pH 7, 100 mM KCl, 0.3 mM 2-amino-6-mercapto-7-methylpurine ribonucleosde, 1 uM (1 unit/ml) purine-nucleoside phosphorylase (Sigma N8264) and 200 uM of the non-varied substrate. Reactions were monitored with a Spectramax plate reader. The Michaelis-Menten kinetics protocol of the Spectramax software was customized for the substrate concentrations used. The software returns values of KM and Vmax using the Lineweaver-Burke transformation of the Michaelis-Menten equation. To determine kcat, Vmax (uM/min) was divided by the enzyme concentration (uM). […] KI was then calculated from the following form of the Michaelis-Menten equation for competitive inhibition: KI=KM[I]/(KM app−KM) KM approximates the dissociation constant of the enzyme-substrate complex while kcat is the rate of conversion of substrate to product when the substrate concentration is saturating. kcat/KM is a widely accepted parameter for catalytic efficiency when substrate concentration is low (˜KM). […] The parameter kcat/KM×KI is used to quantify both catalytic efficiency and insensitivity and thus the overall fitness of the enzyme.\nLikewise, the mutations present in maize EPSPS 123-C1 (See Table 8) were mapped onto the amino acid sequences of sorghum (SEQ ID NO:23) and the proteins were produced and purified as above."}, "[2]": {"substrate": "C=C(OP(=O)(O)O)C(=O)O", "experiment": "EPSPS substrate saturation kinetics, WT-FS-E", "type": "biochemical, Zea mays", "settings": "other: PEP varied; pH 7.0", "experimental": "as §1, with “reader.” for “reader. The Michaelis-Menten kinetics protocol of the Spectramax software was customized for the substrate concentrations used. The software returns values of KM and Vmax using the Lineweaver-Burke transformation of the Michaelis-Menten equation. To determine kcat, Vmax (uM/min) was divided by the enzyme concentration (uM).”, “enzyme. […]” for “enzyme.”\nThe vector DNA of the library was transformed into the BL21(DE3) Tuner AroA knockout strain and the cells were plated onto M9 medium containing 50 mM glyphosate. A small aliquot of the transformed cells was plated on LB, by which it was determined that 1.1×10^8 colony forming units, or 20% of the theoretical library size, were plated and screened. […]"}, "[3]": {"substrate": "C=C(OP(=O)(O)O)C(=O)O", "experiment": "purified protein, by the assay type", "settings": "pH 7.0"}, "[4]": {"test_system": "Glycine max (93Y21) hairy root", "experiment": "Hairy root growth from transformed soybean cotyledons with or without 25 uM glyphosate", "type": "cell-based", "settings": "constructs containing the UBQ10 promoter"}, "[5]": {"settings": "other: substrate saturation, Zm-P107L"}, "[6]": {"settings": "other: substrate saturation, Zm native"}, "[7]": {"settings": "other: substrate saturation, Zm-G102A"}},
  "data": [
    {"molecule": "Sor ha C1 mutations: mutated version of the EPSPS sequence from sorghum that contains the 123-C1 mutations (protein, Sorghum halapense H6T5X2 with C1 mutations) ARGWEEIVLQPIKEISGTVKLPGSKSLSNRILLLAALSEGTTVVDNLLNSEDVHYMLGALNTLGLSVEADKVAKRAVVVGCGGRFPVEDAKEEVQLFCGNAATAMRPLTAAVTAAGGNATYVLDGVPRMRERPIGDLVVGLKQLGADVDCFLGTDCPPVRINGIGGLPGGKVKLSGSISSQYLSALLMAAPLALGDVEIEIIDKLISLPYVEMTLRLMERFGVKAEHSDSWDRFYIKGGQKYESPKNAYVEGDASSASYFLAGAAITGGTVTVEGCGTTSLQGDVKFAEVLEMMGAKVTWTETSVTVTGPPRQPFGRKHLKAIDVNMNKMPDVAMTLAVVALFADGPTAIRDVASWRVKETERMVAIRTELTKLGASVEEGPDYCIITPPPKLNVTAIDTYGDHRMAMAFSLAACAEVPVTIRDPGCTRKTFPDYFDVLSTFVKN", "values": [
      {"measurement": "Reaction rate, 200 uM, no glyph", "setting": "[1]", "result": 356},
      {"measurement": "Reaction rate, 30 uM, 1 mM glyph", "setting": "[1]", "result": 60.0}
    ]},
    {"molecule": "Zea mays EPSPS variant WT-FS-E (102A 302S 391G 438R) (Zea mays; E301S/E390G/G101A/V437R) (protein) MAGAEEIVLQPIKEISGTVKLPGSKSLSNRILLLAALSEGTTVVDNLLNSEDVHYMLGALRTLGLSVEADKAAKRAVVVGCGGKFPVEDAKEEVQLFLGNAATAMRPLTAAVTAAGGNATYVLDGVPRMRERPIGDLVVGLKQLGADVDCFLGTDCPPVRVNGIGGLPGGKVKLSGSISSQYLSALLMAAPLALGDVEIEIIDKLISIPYVEMTLRLMERFGVKAEHSDSWDRFYIKGGQKYKSPKNAYVEGDASSASYFLAGAAITGGTVTVEGCGTTSLQGDVKFAEVLEMMGAKVTWTSTSVTVTGPPREPFGRKHLKAIDVNMNKMPDVAMTLAVVALFADGPTAIRDVASWRVKETERMVAIRTELTKLGASVEEGPDYCIITPPGKLNVTAIDTYDDHRMAMAFSLAACAEVPVTIRDPGCTRKTFPDYFDRLSTFVKN", "values": [
      {"measurement": "Km", "setting": "[2]", "result": 165, "unit": "µM"},
      {"measurement": "kcat", "setting": "[2]", "result": 6.63, "unit": "s⁻¹"},
      {"measurement": "kcat/Km", "setting": "[2]", "result": 2.41, "unit": "min^−1uM^−1"}
    ]},
    {"molecule": "Zea mays EPSPS variant P107L (Zea mays; P106L) (protein) MAGAEEIVLQPIKEISGTVKLPGSKSLSNRILLLAALSEGTTVVDNLLNSEDVHYMLGALRTLGLSVEADKAAKRAVVVGCGGKFPVEDAKEEVQLFLGNAGTAMRLLTAAVTAAGGNATYVLDGVPRMRERPIGDLVVGLKQLGADVDCFLGTDCPPVRVNGIGGLPGGKVKLSGSISSQYLSALLMAAPLALGDVEIEIIDKLISIPYVEMTLRLMERFGVKAEHSDSWDRFYIKGGQKYKSPKNAYVEGDASSASYFLAGAAITGGTVTVEGCGTTSLQGDVKFAEVLEMMGAKVTWTETSVTVTGPPREPFGRKHLKAIDVNMNKMPDVAMTLAVVALFADGPTAIRDVASWRVKETERMVAIRTELTKLGASVEEGPDYCIITPPEKLNVTAIDTYDDHRMAMAFSLAACAEVPVTIRDPGCTRKTFPDYFDVLSTFVKN", "values": [
      {"measurement": "Km", "setting": "[3]; other: PEP varied", "result": 67.1, "unit": "µM"},
      {"measurement": "Km", "setting": "[3]; [5]", "result": 59.7, "unit": "µM"},
      {"measurement": "kcat", "setting": "[3]; [5]", "result": 22.93, "unit": "s⁻¹"}
    ]},
    {"molecule": "Zea mays EPSPS, native, SEQ ID NO:2 (Zea mays) (protein) MAGAEEIVLQPIKEISGTVKLPGSKSLSNRILLLAALSEGTTVVDNLLNSEDVHYMLGALRTLGLSVEADKAAKRAVVVGCGGKFPVEDAKEEVQLFLGNAGTAMRPLTAAVTAAGGNATYVLDGVPRMRERPIGDLVVGLKQLGADVDCFLGTDCPPVRVNGIGGLPGGKVKLSGSISSQYLSALLMAAPLALGDVEIEIIDKLISIPYVEMTLRLMERFGVKAEHSDSWDRFYIKGGQKYKSPKNAYVEGDASSASYFLAGAAITGGTVTVEGCGTTSLQGDVKFAEVLEMMGAKVTWTETSVTVTGPPREPFGRKHLKAIDVNMNKMPDVAMTLAVVALFADGPTAIRDVASWRVKETERMVAIRTELTKLGASVEEGPDYCIITPPEKLNVTAIDTYDDHRMAMAFSLAACAEVPVTIRDPGCTRKTFPDYFDVLSTFVKN", "values": [
      {"measurement": "Km", "setting": "[3]; [6]", "result": 11.0, "unit": "µM"},
      {"measurement": "kcat", "setting": "[3]; [6]", "result": 17.27, "unit": "s⁻¹"}
    ]},
    {"molecule": "Sor ha, native: native EPSPS from sorghum (Sorghum halepense) (protein, Sorghum halapense) AAGAEEIVLQPIKEISGTVKLPGSKSLSNRILLLAALSEGTTVVDNLLNSEDVHYMLGALNTLGLSVEADKVAKRAVVVGCGGKFPVEDAKEEVQLFLGNAGTAMRPLTAAVTAAGGNATYVLDGVPRMRERPIGDLVVGLKQLGADVDCFLGTDCPPVRINGIGGLPGGKVKLSGSISSQYLSALLMAAPLALGDVEIEIIDKLISIPYVEMTLRLMERFGVKAEHSDSWDRFYIKGGQKYKSPKNAYVEGDASSASYFLAGAAITGGTVTVEGCGTTSLQGDVKFAEVLEMMGAKVTWTETSVTVTGPPRQPFGRKHLKAIDVNMNKMPDVAMTLAVVALFADGPTAIRDVASWRVKETERMVAIRTELTKLGASVEEGPDYCIITPPEKLNVTAIDTYDDHRMAMAFSLAACAEVPVTIRDPGCTRKTFPDYFDVLSTFVKN", "values": [
      {"measurement": "Reaction rate, 200 uM, no glyph", "setting": "[1]", "result": 1376},
      {"measurement": "Reaction rate, 30 uM, 1 mM glyph", "setting": "[1]", "result": "−2.2"}
    ]},
    {"molecule": "Zea mays EPSPS variant G102A (Zea mays; G101A) (protein) MAGAEEIVLQPIKEISGTVKLPGSKSLSNRILLLAALSEGTTVVDNLLNSEDVHYMLGALRTLGLSVEADKAAKRAVVVGCGGKFPVEDAKEEVQLFLGNAATAMRPLTAAVTAAGGNATYVLDGVPRMRERPIGDLVVGLKQLGADVDCFLGTDCPPVRVNGIGGLPGGKVKLSGSISSQYLSALLMAAPLALGDVEIEIIDKLISIPYVEMTLRLMERFGVKAEHSDSWDRFYIKGGQKYKSPKNAYVEGDASSASYFLAGAAITGGTVTVEGCGTTSLQGDVKFAEVLEMMGAKVTWTETSVTVTGPPREPFGRKHLKAIDVNMNKMPDVAMTLAVVALFADGPTAIRDVASWRVKETERMVAIRTELTKLGASVEEGPDYCIITPPEKLNVTAIDTYDDHRMAMAFSLAACAEVPVTIRDPGCTRKTFPDYFDVLSTFVKN", "values": [
      {"measurement": "Km", "setting": "[3]; other: PEP varied", "result": 310, "unit": "µM"},
      {"measurement": "Km", "setting": "[3]; [7]", "result": 407, "unit": "µM"},
      {"measurement": "kcat", "setting": "[3]; [7]", "result": 14.3, "unit": "s⁻¹"}
    ]},
    {"molecule": "868-H6: maize EPSPS with A2R, A4W, A72Q, K84R, L98C, G102A, I208L, T279A, E302S, T361S, E391G, D402G, A416G, V438R, T441Q (protein, maize clone 868-H6, maize EPSPS with A2R, A4W, A72Q, K84R, L98C, G102A, I208L, T279A, E302S, T361S, E391G, D402G, A416G, V438R, T441Q) MRGWEEIVLQPIKEISGTVKLPGSKSLSNRILLLAALSEGTTVVDNLLNSEDVHYMLGALRTLGLSVEADKQAKRAVVVGCGGRFPVEDAKEEVQLFCGNAATAMRPLTAAVTAAGGNATYVLDGVPRMRERPIGDLVVGLKQLGADVDCFLGTDCPPVRVNGIGGLPGGKVKLSGSISSQYLSALLMAAPLALGDVEIEIIDKLISLPYVEMTLRLMERFGVKAEHSDSWDRFYIKGGQKYKSPKNAYVEGDASSASYFLAGAAITGGTVTVEGCGTASLQGDVKFAEVLEMMGAKVTWTSTSVTVTGPPREPFGRKHLKAIDVNMNKMPDVAMTLAVVALFADGPTAIRDVASWRVKESERMVAIRTELTKLGASVEEGPDYCIITPPGKLNVTAIDTYGDHRMAMAFSLAACGEVPVTIRDPGCTRKTFPDYFDRLSQFVKN", "values": [
      {"measurement": "hairy root growth in the presence of 25 uM glyphosate", "setting": "[4]", "result": "generated hairy roots"}
    ]},
    {"molecule": "771-C2: maize EPSPS with A4W, H54M, L98C, G102A, K173R, I208L, K243E, E302S, T361S, E391P, D402G, A416G, V438R, S440R, T441Q, F442V (protein, maize clone 771-C2, maize EPSPS with A4W, H54M, L98C, G102A, K173R, I208L, K243E, E302S, T361S, E391P, D402G, A416G, V438R, S440R, T441Q, F442V) MAGWEEIVLQPIKEISGTVKLPGSKSLSNRILLLAALSEGTTVVDNLLNSEDVMYMLGALRTLGLSVEADKAAKRAVVVGCGGKFPVEDAKEEVQLFCGNAATAMRPLTAAVTAAGGNATYVLDGVPRMRERPIGDLVVGLKQLGADVDCFLGTDCPPVRVNGIGGLPGGKVRLSGSISSQYLSALLMAAPLALGDVEIEIIDKLISLPYVEMTLRLMERFGVKAEHSDSWDRFYIKGGQKYESPKNAYVEGDASSASYFLAGAAITGGTVTVEGCGTTSLQGDVKFAEVLEMMGAKVTWTSTSVTVTGPPREPFGRKHLKAIDVNMNKMPDVAMTLAVVALFADGPTAIRDVASWRVKESERMVAIRTELTKLGASVEEGPDYCIITPPPKLNVTAIDTYGDHRMAMAFSLAACGEVPVTIRDPGCTRKTFPDYFDRLRQVVKN", "values": [
      {"measurement": "hairy root growth in the presence of 25 uM glyphosate", "setting": "[4]", "result": "generated hairy roots"}
    ]}
  ]
}
